This note sets out measurements from article PMC4495402 (Genes & Development, 2015).

The assay has as its target Xenopus histone H3/H4 tetramer (Xenopus, UniProt P84233 21-136; P62799 17-103). As to the kind of experiment: ITC.

EPQEEISKHIREIFGYDRKKYKDESDYALRYMESS (domain or fragment) [hSpt2C (610–644) composed of only αC1] yielded a dissociation constant (Kd) of 55.6 µM and a dH of -9.2 kcal/mol.

B1: yeast ySpt2C(259–333) (domain or fragment)
chain: PGYDRDEIWAMFNRGKKRSEYDYDELEDDDMEANEMEILEEEEMARKMARLEDKREEAWLKKHEEEKRRRKKGIR
Take B1: the dH was -19.2 kcal/mol.

For the molecule ALRYMESSWKEQQKEEAKSLRLGMQEDLEEMRREEEEMQRRRAKKLKRR (domain or fragment) [hSpt2C (637–685) composed of only αC2], the Kd is 2.3 µM and the dH is -38.9 kcal/mol.
